# Test results published in publication PMC7145526, “The mRNA repressor TRIM71 cooperates with Nonsense-Mediated Decay factors to destabilize the mRNA of CDKN1A/p21”.
# T1: Flag-TRIM71-NHL (Homo sapiens, UniProt Q2Q1W2 585-868)
# T1 sequence: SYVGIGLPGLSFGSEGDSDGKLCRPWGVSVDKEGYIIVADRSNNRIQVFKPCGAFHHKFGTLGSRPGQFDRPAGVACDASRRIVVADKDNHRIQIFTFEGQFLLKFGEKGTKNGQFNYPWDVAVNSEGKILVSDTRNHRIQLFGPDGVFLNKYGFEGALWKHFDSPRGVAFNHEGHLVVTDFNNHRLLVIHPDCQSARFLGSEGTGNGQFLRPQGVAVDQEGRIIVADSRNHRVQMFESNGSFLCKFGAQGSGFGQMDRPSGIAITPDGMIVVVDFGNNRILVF
# B1: TRE M#3 (SL M#3), loop position III G to C (structured_RNA)
# RNA: GUCUUGUCAAGGC
# Molecular target: T1, Flag-TRIM71-NHL
# Experiment: fluorescence polarization; 1x TBST, 30 min, RT; 100 nM 5'-Cy3 RNA, increasing protein concentrations; pH and salt not given
# Conditions: protein: recombinant; tags: Flag; label: 5'-Cy3; hairpin (disruptive mutation)
binder,measurement,value
B1,binding result,no binding
